Results taken from publication doi:10.1101/2025.01.10.632391.

Biological target: angiopoietin-like 6 (ANGPTL6) (UniProt Q8NI99)
Test: SPR

Chain of UniProt Q8NI99 (Q8NI99 21-470): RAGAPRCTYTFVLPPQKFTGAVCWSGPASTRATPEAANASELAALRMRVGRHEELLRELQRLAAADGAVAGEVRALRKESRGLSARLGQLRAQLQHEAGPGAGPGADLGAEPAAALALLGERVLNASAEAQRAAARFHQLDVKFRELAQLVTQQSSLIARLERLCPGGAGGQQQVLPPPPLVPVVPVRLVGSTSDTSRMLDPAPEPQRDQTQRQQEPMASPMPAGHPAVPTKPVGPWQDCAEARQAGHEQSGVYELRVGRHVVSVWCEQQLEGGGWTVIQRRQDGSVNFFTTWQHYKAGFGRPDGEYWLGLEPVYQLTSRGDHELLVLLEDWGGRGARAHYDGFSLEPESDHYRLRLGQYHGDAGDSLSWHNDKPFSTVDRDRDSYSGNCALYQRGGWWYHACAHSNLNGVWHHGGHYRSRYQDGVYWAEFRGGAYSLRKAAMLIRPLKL

- Kd: 0.013 µM
- koff: 0.0012 s⁻¹
Substance: αVβ5 integrin (from UniProt P06756 31-1048; P18084 24-719) (complex)
